Measured values as given in the nanobody polyreactivity screen of Harvey et al. (2022).

Experiment: yeast display, Sf9 membrane polyspecificity reagent, FACS + sequencing; frameworks hold sequencing errors
Procedure, shortened: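 Polyreactivity labels are assigned by the sorting gate from which each nanobody was recovered. The gates were low and high (top ~1%), set on anti-HA fluorescence for expression and streptavidin fluorescence for reagent binding. Before sorting, galactose-induced (36–48 hours) yeast display cells were stained for 1 hour at 4 °C with 10% biotinylated, detergent-solubilized Sf9 membrane reagent.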

Sequence | polyreactivity (PSR sort gate)
QVQLVESGGGLVQAGGSLRLSCAASGRTFILNAMGWYRQAPGKERELVAAISWSGGSTYYADSVKGRFTISRDNAKNTVYLQMNCLKPEDTAVYYCAKRYVDPLGSGTHGSWGQGTQVTVSS | low polyreactivity
QVQLVESGGGLVQAGGSLRLSCAASGRTFIPYAMGWYRQAPGKERELVAAITSSGGRTYYADSVKGRFTISRDNAKNTVYLQMNSLKPEDTAVYYCNKYARGYDMDYWGQGTQVTVSS | high polyreactivity
QVQLVESGGGLVQAGGSLRLSCAASGRTFIPYAMGWYRQAPGKERELVATIRRGGSTYYADSVKGSFTISRDNAKNTVYLQMNSLKPEDTAVYYCAATRYSFGPRRVDYWGQGTQVSVSS | high polyreactivity
QVQLVESGGGLVQAGGSLRLSCAASGRTFISYAMGWYRQAPGKERELVAAISSSGGSTYYADSVKGRFTISRDNAKNTVYLQMNSLIPEDTAVYYCNADSSASTYTFPFDYWGQGTQVTVSS | low polyreactivity
QVQLVESGGGLVQAGGSLRLSCAASGRTFISYAMGWYRQAPGKERELVAGISRGGSTYYADSVKGRFTISRDNAMNTVYLQMNRLKPEDTAVYYCAARRWISSHSYKYGYWGQGTQVTVSS | high polyreactivity
QVQLVESGGGLVQAGGSLRLSCAASGRTFITNAMGRNRQAPGKERELVARISSDGSTYYADSVKGRFTISRDNAKNTVYLQMNSLKPEDTAVYYCNKEFLRRQLFTFWHLGGYWGQVTQVTVSS | low polyreactivity
QVQLVESGGGLVQAGGSLRLSCAASGRTFITYAMGWYRQAPGKERELVAAISWNGGTTYYADSVKGRFTISRDNAKNTVYLQMNSLKPEDTAVYYCAAYRWYSAARMGYWGQGTQVTVSS | high polyreactivity
QVQLVESGGGLVQAGGSLRLSCAASGRTFIYYAMGWSRQAPGKERELVAGISRNGGRTYYADSVKGRFTISRDNAKNTVYLQMNSLKPEDTAVYYCNAYPPSRHDYLGQGTQVTVSS | high polyreactivity
QVQLVESGGGLVQAGGSLRLSCAASGRTFIYYAMGWYRQAPGKERELVARIRANGVSTYYADSVKGRFTISRDNAKNTVYLQMNSLKPEDTAVYYCAKGYFPSQYEYWGQGTQVTVSS | high polyreactivity
QVQLVESGGGLVQAGGSLRLSCAASGRTFKAYAMGWYRQAPGKERELVAAITYSGGSTYYADSVKGRFTISRDNAKNTVYLQMNSLKPEDTAVYYCAASAQSRSRVKLYYWGQGTQVTVSS | high polyreactivity
QVQLVESGGGLVQAGGSLRLSCAASGRTFKDYAMGWYRQAPGKERELVAAISWSGGDTYYADSVKGRVTISRDNAKNTVYLQMNSLKPEDTAVYYCNADPSGVFFYSLEFDYWGQGTQVTVSS | low polyreactivity
QVQLVESGGGLVQAGGSLRLSCAASGRTFKHYAMGWYRPAPGKERELVAAITSGGSTYYADSVKGRFTISRDNAKNTVYLQMNSLKPEDTAVYYCNKESYFDTYRRYDSWGQGTQVTVSS | low polyreactivity
QVQLVESGGGLVQAGGSLRLSCAASGRTFKNNAMGWYRQAPGKERELVAAISSNGGSTYYADSVKGRFTISRDNAKNTVYLQMNSLKPEDTAVYYCAADRTIVEYYYWGQGTQVTVSS | high polyreactivity
QVQLVESGGGLVQAGGSLRLSCAASGRTFKNYAMGWYRQAPGKERELVAAISSGGGRTKYADSVKGRFTISRDNAKNSVYLQMNSLKPEDTAVYYCAAAYYYRDDYWGQGTQVTVSS | high polyreactivity
QVQLVESGGGLVQAGGSLRLSCAASGRTFKPYVMGWYRQAPGKERELVAAISSRGDITYYADSVKCRFTISRHNAKNTVYLHMNSLKPEDTAVYYCNAGPAVRSAYSTPYYDYWGQGTQVTVSS | low polyreactivity
QVQLVESGGGLVQAGGSLRLSCAASGRTFKRKAKGWYRQAPGKEWEFVAVITGSGGSTYYADSVKGRFTISRDNAKNTVYLQMNSLKPEDTAVYYCAAALGLRSTSWGRRGGGGDYWGQGTQVTVSS | high polyreactivity
QVQLVESGGGLVQAGGSLRLSCAASGRTFKRYAMGWYRQAPGKERELVAAITASGGNTYYADSVKGRFTISRDNAKNTVYLQMNSLKPEDTAVYYCNAVTSVQARPRNYYYWGQGTQVTVSS | high polyreactivity
QVQLVESGGGLVQAGGSLRLSCAASGRTFKRYAMGWYRQAPGKERELVATISGNGGRTYYADSVKGRFTISRDNAKNTVYLQMNSLKPEDTAVYYCAALLYIRSVGYDYWGQGTQVTVSS | low polyreactivity
QVQLVESGGGLVQAGGSLRLSCAASGRTFKSYAMGWNRQAPGQERELVATITRDGRTNYADSVKGRFTISRDNAKNTVYLQLNSLKPEDTAVYYCNADSRYRYDYWGQGTQVTVSS | low polyreactivity
QVQLVESGGGLVQAGGSLRLSCAASGRTFKTYAMGWYRQAPGKERELVAAISRDGRTYYADSVKGRFTISRDNAKNTVYLQMNSLKPEDTAVYYCNKRSYRKGDYWGQGTQVTVSS | low polyreactivity
QVQLVESGGGLVQAGGSLRLSCAASGRTFKTYAMGWYSQAPGKERELVAAISRDGRTYYADSVKGRFTISRDNAKNTVYLQMNSLKPEDTAVYYCNKRSYRKGDYWGQGTQVTVSS | low polyreactivity
QVQLVESGGGLVQAGGSLRLSCAASGRTFKWNAMGWYRPAPGKERELVAAISISAGSTYYADSVKGRFTISRDNAKKTVYLQMNSLKPEDTAVYYCNTKYVRFYSRMDSWGQGTQVTVSS | low polyreactivity

Sequence | polyreactivity (PSR sort gate)
QVQLVESGGGLVQAGGSLRLSCAASGRTFKWYAMGLYRQAPGKEREFVAGISRGAGRTYYADSVKGRFTISRDNAKNTVYLQMNSLKPEDTAVYYCAAVPSYHSTSPFYYWGQGTQVTVSS | high polyreactivity
QVQLVESGGGLVQAGGSLRLSCAASGRTFKYNAMGWYRQAPGKERELVAAITRSGSTYYADSVKGRFTISRDNAKNTVYLQMNSLKPEDTAVYYCNARIVNYGSYYYWGQGTQVTVSS | high polyreactivity
QVQLVESGGGLVQAGGSLRLSCAASGRTFKYNAMGWYRQAPGKERELVAVIRYSGGTTYYADSVKGRFTISRDNAKNTVYLQMNSLKPEDTAVYYCARGFTYQYSSFYYWGQGTQVTVSS | low polyreactivity
QVQLVESGGGLVQAGGSLRLSCAASGRTFKYNAMGWYRQAPGKERELVAVIRYSGGTTYYADSVKGRVTISRDNAKNTVYLQMNSLKPEDTAVYYCAADSWSRSVNYYYWGQGTQVTVSS | low polyreactivity
QVQLVESGGGLVQAGGSLRLSCAASGRTFKYNTMGWYRQAPGKERELVAVISRSGGRTYYADSVKGRFTISRDNAKNTVYLQMNSLKPEDTAVYYCAARARGNDGYYWGQGTQVTVSS | high polyreactivity
QVQLVESGGGLVQAGGSLRLSCAASGRTFKYYAKGWYRQAPGKERELVAAINSGGITYYADTVKGRFTISRDNEKNTVYLQRNSLKAEDTAVYYCAKVWKIGVLRYPSYGYYYWGQGTQVTVSS | high polyreactivity
QVQLVESGGGLVQAGGSLRLSCAASGRTFKYYAMGWYRPAPGKERELVAAISYNGGSTFYADSVKGRFTISRDNAKNTVYLQMNSLKPEDTAVYYCAAGPRGTGKYYWGQGTQVTVSS | high polyreactivity
QVQLVESGGGLVQAGGSLRLSCAASGRTFKYYAMGWYRQAPGKERELVAAISVSGGRTYYADSVKGRFTISRDNAKNTVYLQMNSLKPEDTAVYYCNAVRYVHPEDYWGQGTQVTVSS | high polyreactivity
QVQLVESGGGLVQAGGSLRLSCAASGRTFKYYAMGWYRQAPGKERELVAAITRSGSTNYADSVKGRFTISRDNAKNSVYLQMNSLKPEDTAVYYCAADVTLYYRGRRYYYWGQGTQVTVSS | high polyreactivity
QVQLVESGGGLVQAGGSLRLSCAASGRTFKYYAMGWYRQAPGKERELVAASTTGGSTHYADSVKGRFTISRDNAKNTVYLQMNSLKPEDTAVYYCAAGPFARYDYWGQGTQVTVSS | low polyreactivity
QVQLVESGGGLVQAGGSLRLSCAASGRTFKYYGMGWYRQAPGKERELVATISRSSSRTYYADSVKGRFTISRDNAKNTVYLQMNSLKPEDTAFYYCATLGPRSYAYDYWGQGTQVTVSS | high polyreactivity
QVQLVESGGGLVQAGGSLRLSCAASGRTFLAMGWYRQAPGKERELVAAISRTNYADSVKGRFTISRDNAKNTVYLQMNSLKPEDTAVYYCAKEYYSYEVYLGLSYVRRYDYWGQGTQVTVSS | low polyreactivity
QVQLVESGGGLVQAGGSLRLSCAASGRTFLFYAMGWYRQAPGKERELVAAIRRGGSTYYADSVKGRFTISRDNAKNTVYLQMNSLKPEDTAVYYCNAGSALRRSYYRYYYWGQGTQVTVSS | high polyreactivity
QVQLVESGGGLVQAGGSLRLSCAASGRTFLGNAMGWYRQAPGKERELVAAIRYSGGRTYYADSVKGRFTISRDNAKNTVYLQMNSLKPEDTAVYYCAKDRRYYKAYDYWGQGTQVTVSS | low polyreactivity
QVQLVESGGGLVQAGGSLRLSCAASGRTFLGYAMGWYRQAPGKERELVAAISYSGSSTYYADSVKGRFTISRDNAKNTVYLQMNSLKPEDTAVYYCAAQFYFLFDYWGQGTQVTVSS | low polyreactivity
QVQLVESGGGLVQAGGSLRLSCAASGRTFLLYAMGWYRQAPGKERELVASITSDGRTNYADSVKGRFSISRDNAKNTVYLHMNSLKPEDTADYYCATVGKVHHRLVAMDYWGQGTQVTVSS | low polyreactivity
QVQLVESGGGLVQAGGSLRLSCAASGRTFLPYAMGWYRQAPGKERELVAAITYSGGRTYYADSVKGRFTISRDNAKNTVYLQMNSLKPEDTAVYYCAASLWFGGGYWGLGTQVTVSS | high polyreactivity
QVQLVESGGGLVQAGGSLRLSCAASGRTFLQYAMGWYRQAPRQERDLFATISFSGGSTYYADSVKGRITISRDNAKNTVYLLMNSLKPEDTAVYDCAKSQYRGRVYTGYDYWGQGTQVTVSA | low polyreactivity
QVQLVESGGGLVQAGGSLRLSCAASGRTFLRNAMGWYRQAPGKEREFVAAISTRDGRTYYADSVKGRFTISRDNAKNTVYLQMNSLKPEDTAVYYCNAVNTAGYYYYYAFFWDYDYWGQGTQVTVSS | high polyreactivity
QVQLVESGGGLVQAGGSLRLSCAASGRTFLRYAMGWYRQAPGKERELVAAITSSGGSTFYADSVKGRFTISRDNAKNTVYLQMNSLKPEDSAVYYCAASVGRGYYWGQGTQVTVSS | high polyreactivity
QVQLVESGGGLVQAGGSLRLSCAASGRTFLRYAMGWYRQAPGKERELVAAITYGGRTNYADSVKGRFTISRDNAKNTVYLQMNSLKPEDTAVYYCAADRTYYYGMRVDYWGQGTQVTVSS | high polyreactivity
